The values below come from US20030077800A1 (HORMOS MEDICAL, published 2003).

Assay [1] has as its target rat androgen receptor expressed from pSG-rAR (rat) (UniProt P15207). In words: cell-based or functional assay.
Assay [2] has as its target T1, rat AR (amino acids 3-902) fused to the DBD of Gal4 (Gal4-AR) (rat, UniProt P04386 1-147; P15207 3-902).
T1 construct: domain: DBD;range 3-902; Mammalian two-hybrid bait in CV-1 cells; also called Gal-AR
In words: mammalian two-hybrid in CV-1 cells, pG5LUC reporter.

Assay [3] has as its target T2, LexA-AR ZFR (AR amino acids 554-644) (human, UniProt P10275 554-644).
T2 sequence (looked up): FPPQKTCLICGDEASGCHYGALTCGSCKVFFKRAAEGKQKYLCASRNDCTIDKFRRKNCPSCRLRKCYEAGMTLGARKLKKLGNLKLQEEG
In words: cell-based or functional assay.

In assay [4] the target is T3, LexA-HLBD (amino acids 624-919 of AR) (UniProt P10275 624-919).
T3 sequence (looked up): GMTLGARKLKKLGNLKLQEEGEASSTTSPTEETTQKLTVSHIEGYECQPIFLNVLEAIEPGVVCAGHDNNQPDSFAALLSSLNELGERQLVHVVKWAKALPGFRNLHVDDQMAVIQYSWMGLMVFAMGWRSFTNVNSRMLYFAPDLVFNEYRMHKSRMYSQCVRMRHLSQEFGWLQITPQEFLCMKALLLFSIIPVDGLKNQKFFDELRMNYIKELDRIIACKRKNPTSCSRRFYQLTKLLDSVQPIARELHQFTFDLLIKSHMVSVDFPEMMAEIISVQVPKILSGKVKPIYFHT
In words: cell-based or functional assay.

Chain of rat androgen receptor expressed from pSG-rAR (rat) (P15207 whole entry S389L, the tested form may be a part): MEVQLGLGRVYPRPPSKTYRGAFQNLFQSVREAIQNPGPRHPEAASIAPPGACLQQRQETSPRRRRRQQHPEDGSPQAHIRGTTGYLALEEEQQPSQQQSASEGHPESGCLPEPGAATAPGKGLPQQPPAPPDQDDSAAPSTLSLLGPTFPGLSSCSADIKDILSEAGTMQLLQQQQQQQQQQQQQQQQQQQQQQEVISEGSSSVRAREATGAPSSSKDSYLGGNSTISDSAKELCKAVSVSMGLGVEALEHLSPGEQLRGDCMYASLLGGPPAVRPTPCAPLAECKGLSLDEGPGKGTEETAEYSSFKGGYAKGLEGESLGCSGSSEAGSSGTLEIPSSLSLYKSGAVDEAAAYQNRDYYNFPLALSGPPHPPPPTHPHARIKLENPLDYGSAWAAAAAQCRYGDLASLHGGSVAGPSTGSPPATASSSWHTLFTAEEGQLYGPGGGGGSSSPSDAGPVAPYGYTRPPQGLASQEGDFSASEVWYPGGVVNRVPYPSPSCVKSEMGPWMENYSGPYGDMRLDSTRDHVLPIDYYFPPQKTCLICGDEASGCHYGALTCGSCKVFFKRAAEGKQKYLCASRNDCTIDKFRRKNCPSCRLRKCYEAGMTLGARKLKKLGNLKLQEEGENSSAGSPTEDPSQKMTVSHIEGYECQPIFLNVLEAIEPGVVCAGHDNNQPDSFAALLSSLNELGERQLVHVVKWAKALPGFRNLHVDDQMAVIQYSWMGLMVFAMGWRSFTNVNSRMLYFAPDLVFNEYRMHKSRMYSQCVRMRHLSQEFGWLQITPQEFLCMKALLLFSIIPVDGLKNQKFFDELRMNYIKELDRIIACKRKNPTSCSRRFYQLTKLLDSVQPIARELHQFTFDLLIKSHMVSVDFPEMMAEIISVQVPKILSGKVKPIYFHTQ

As for “FLAG-tagged ARIP4 (pFLAG-ARIP4) (from UniProt Q99NG0 1-1467)”, in assay [1], the AR activity on the probasin promoter (pPB(-285/+32)-LUC, COS-1 cells) (% of that of AR alone) is 50 to 60 and the transcriptional activity of AR on a minimal promoter (ARE4-tk-LUC, COS-1 cells) is 3 fold.

B1: VP16-ODC fusion protein (human ornithine decarboxylase fused to VP16 AD) (other)
chain: MNNFGNEEFDCHFLDEGFTAKDILDQKINEVSSSDDKDAFYVADLGDILKKHLRWLKALPRVTPFYAVKCNDSKAIVKTLAATGTGFDCASKTEIQLVQSLGVPPERIIYANPCKQVSQIKYAANNGVQMMTFDSEVELMKVARAHPKAKLVLRIATDDSKAVCRLSVKFGATLRTSRLLLERAKELNIDVVGVSFHVGSGCTDPETFVQAISDARCVFDMGAEVGFSMYLLDIGGGFPGSEDVKLKFEEITGVINPALDKYFPSDSGVRIIAEPGRYYVASAFTLAVNIIAKKIVLKEQTGSDDEDESSEQTFMYYVNDGVYGSFNCILYDHAHVKPLLQKRPKPDEKYYSSSIWGPTCDGLDRIVERCDLPEMHVGDWMLFENMGAYTVAAASTFNGFQRPTIYYVMSGPAWQLMQQFQNPDFPPEVEEQDASTLPVSCAWESGMKRHRAACASASINV
notes: Negative control in the mammalian two-hybrid assay; also called human ODC
For B1, the binding result in assay [2] is “no binding”.

B2: VP16 AD fused to ARIP4 (amino acids 86-227) (VP16 AD-ARIP4 ID) (other)
chain: RHQGKILASEDPKKKRAQKPSHMRRNIRKLLREDQLEPVTKAAQQEELERRKRLEQQRKEYAAPIPTVPLEFLPEEIVLRASDGPQLPPRVLAQEVICLDSSSGSEDEKSSRDEVIELSSGEEDTLHIVDSSESVSEEDEEE
For the molecule B2, the “reporter gene activity (beta-galactosidase, yeast two-hybrid)” value in assay [3] was roughly 100 fold. Also, the “reporter gene activity (beta-galactosidase, yeast two-hybrid, with androgen)” value in assay [4] was determined as 4 fold.
